Experimental data published in US20200231691A1 (Hoffmann-La Roche, published 2020).

Assays:
murine EpCAM = biological target: T1, murine EpCAM (murine, UniProt Q99JW5 24-315); assay: flow cytometry, muEpCAM+ CT26muEpCAM cells
T1 construct: Stably expressed on CT26muEpCAM cl25 cells; also called muEpCAM; CT26muEpCAM cells
T1 sequence: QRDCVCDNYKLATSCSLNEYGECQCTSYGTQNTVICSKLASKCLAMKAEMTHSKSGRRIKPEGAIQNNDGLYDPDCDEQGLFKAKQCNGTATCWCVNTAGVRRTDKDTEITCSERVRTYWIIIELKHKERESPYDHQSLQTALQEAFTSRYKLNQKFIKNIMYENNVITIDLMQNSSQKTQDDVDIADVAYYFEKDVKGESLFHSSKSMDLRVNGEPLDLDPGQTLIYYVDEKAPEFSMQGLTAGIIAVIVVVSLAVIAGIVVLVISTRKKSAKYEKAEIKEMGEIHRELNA
Description: (§1) The binding to cell surface murine EpCAM was analysed using mouse EpCAM-positive CT26muEpCAM c125 cells, which stably expresses murine EpCAM. The specificity of binding was analysed by determination of binding to muEpCAM-negative cell line CT26muFAP, which stably expresses murine FAP.
(§2) For analysis of binding of the antigen binding molecules, 0.5×10⁵ CT26muEpCAM or 0.5×10⁵ CT26muFAP cells were added to wells of round-bottomed suspension cell 96-well plates (greiner bio-one, cellstar, Cat. No. 650185). For discrimination of live and dead cells, samples were stained with Zombie Aqua Viability Dye (Biolegend, Cat. No 423102) in PBS for 10 minutes at room temperature. Cells were then washed once with FACS buffer and subsequently stained for 90 minutes at 4° C. in the dark in 50 μL/well 4° C.
(§3) Plates were finally resuspended in 85 μL/well FACS-buffer and acquired the same day using 4-laser LSR-II cytometer (BD Bioscience with DIVA software).

murine OX40 [1] = biological target: T2, murine OX40 (murine, UniProt P47741 20-272); assay: flow cytometry, activated murine OX40+ CD4+ T cells
T2 construct: also called muOX40
T2 sequence: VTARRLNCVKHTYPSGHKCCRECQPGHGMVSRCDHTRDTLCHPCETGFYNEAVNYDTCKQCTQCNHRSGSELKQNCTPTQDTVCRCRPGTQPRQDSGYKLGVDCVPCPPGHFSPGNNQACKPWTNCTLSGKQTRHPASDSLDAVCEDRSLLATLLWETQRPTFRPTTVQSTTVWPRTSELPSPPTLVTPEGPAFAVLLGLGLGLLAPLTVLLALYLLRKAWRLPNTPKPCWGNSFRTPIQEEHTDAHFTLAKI
Description: (§4) For labeling cells were harvested, washed with pre-warmed (37° C.) DPBS and adjusted to a cell density of 1×10⁷ cells/mL in DPBS. eFluor670 cell proliferation dye (eBioscience, Cat.-No. 65-0840-85) was added to the suspension of naïve splenocytes at a final concentration of 2.5 μM and a final cell density of 0.5×10⁷ cells/mL in DPBS. Cells were then incubated for 10 min at room temperature in the dark. To stop labeling reaction, 4 mL heat inactivated FBS were added and cells were washed three times with T cell medium. A mixture of 1×10⁵ resting eFluor670 labeled splenocytes and 1×10⁵ unlabeled activated splenocytes were then added to wells of round-bottomed suspension 96-well plates (Greiner bio-one, cellstar, Cat. No. 650185).
(§5) For discrimination between live and dead cells, samples were stained with Zombie Aqua Viability Dye (Biolegend, Cat. No. 423102) in DPBS for 10 minutes at room temperature. Cells were then washed once with FACS buffer and subsequently stained for 90 minutes at 4° C. in the dark in 50 μL/well 4° C. […] After washing three times with excess FACS buffer, cells were stained for 30 minutes at 4° C. in the dark in 25 μL/well 4° C.
(§6) Plates were finally resuspended in 85 μL/well FACS buffer and acquired the same day using 4-laser LSR-II cytometer (BD Bioscience with DIVA software).

murine OX40 [2] = biological target: T2, murine OX40; assay: flow cytometry, activated murine OX40+ CD8+ T cells
Description: as §4, §5, §6

murine FAP = biological target: T3, murine FAP (murine, UniProt P97321 1-761); assay: flow cytometry on CT26muFAP cells, which stably express murine FAP
T3 construct: whole, on cells; CT26muFAP served as the muEpCAM-negative specificity control cell line; also called muFAP; CT26muFAP cells
T3 sequence (looked up): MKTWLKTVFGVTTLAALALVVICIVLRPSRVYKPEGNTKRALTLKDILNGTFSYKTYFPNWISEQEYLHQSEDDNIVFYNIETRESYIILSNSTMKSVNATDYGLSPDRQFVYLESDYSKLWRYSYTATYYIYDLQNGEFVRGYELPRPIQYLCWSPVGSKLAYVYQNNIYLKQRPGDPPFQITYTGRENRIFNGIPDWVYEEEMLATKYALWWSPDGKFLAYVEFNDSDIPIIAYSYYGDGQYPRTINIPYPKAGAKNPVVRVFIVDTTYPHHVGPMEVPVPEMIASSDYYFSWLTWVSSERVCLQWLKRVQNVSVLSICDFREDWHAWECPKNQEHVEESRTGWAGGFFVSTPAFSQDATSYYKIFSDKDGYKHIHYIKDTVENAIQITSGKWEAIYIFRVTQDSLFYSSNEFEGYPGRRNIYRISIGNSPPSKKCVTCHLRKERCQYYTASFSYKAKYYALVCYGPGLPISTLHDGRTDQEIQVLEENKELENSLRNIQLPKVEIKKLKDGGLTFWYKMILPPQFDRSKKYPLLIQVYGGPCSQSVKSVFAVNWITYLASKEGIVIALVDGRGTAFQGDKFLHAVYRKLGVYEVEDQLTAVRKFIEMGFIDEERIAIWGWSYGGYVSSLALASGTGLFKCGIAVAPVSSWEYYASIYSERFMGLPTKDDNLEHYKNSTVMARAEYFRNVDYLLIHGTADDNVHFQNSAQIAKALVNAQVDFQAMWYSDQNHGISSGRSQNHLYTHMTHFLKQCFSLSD
Description: as §1, §2, §3

EC50 (murine EpCAM): 82.5 nM
EC50 (murine OX40 [1]): 1.47 nM
EC50 (murine OX40 [2]): 0.82 nM
binding result (murine FAP): no binding
B1: bispecific, tetravalent anti-murine OX40, monovalent anti-murine EpCAM 4+1 molecule (muOX40 OX86/muEpCAM G8.8 DAPG 4+1) (bispecific antibody, mouse IgG1, kappa)
heavy 1: QVQLKESGPGLVQPSQTLSLTCTVSGFSLTGYNLHWVRQPPGKGLEWMGRMRYDGDTYYNSVLKSRLSISRDTSKNQVFLKMNSLQTDDTAIYYCTRDGRGDSFDYWGQGVMVTVSSAKTTPPSVYPLAPGSAAQTNSMVTLGCLVKGYFPEPVTVTWNSGSLSSGVHTFPAVLQSDLYTLSSSVTVPSSTWPSQTVTCNVAHPASSTKVDKKIVPRDCGGGGSGGGGSQVQLKESGPGLVQPSQTLSLTCTVSGFSLTGYNLHWVRQPPGKGLEWMGRMRYDGDTYYNSVLKSRLSISRDTSKNQVFLKMNSLQTDDTAIYYCTRDGRGDSFDYWGQGVMVTVSSAKTTPPSVYPLAPGSAAQTNSMVTLGCLVKGYFPEPVTVTWNSGSLSSGVHTFPAVLQSDLYTLSSSVTVPSSTWPSQTVTCNVAHPASSTKVDKKIVPRDCGCKPCICTVPEVSSVFIFPPKPKDVLTITLTPKVTCVVVAISKDDPEVQFSWFVDDVEVHTAQTKPREEQINSTFRSVSELPIMHQDWLNGKEFKCRVNSAAFGAPIEKTISKTKGRPKAPQVYTIPPPKEQMAKDKVSLTCMITNFFPEDITVEWQWNGQPAENYDNTQPIMDTDGSYFVYSDLNVQKSNWEAGNTFTCSVLHEGLHNHHTEKSLSHSPGGGGGSGGGGSGGGGSGGGGSDIQMTQSPASLSASLGETVSIECLASEGISNDLAWYQQKSGKSPQLLIYATSRLQDGVPSRFSGSGSGTRYSLKISGMQPEDEADYFCQQSYKYPWTFGGGTKLELK
heavy 2: QVQLKESGPGLVQPSQTLSLTCTVSGFSLTGYNLHWVRQPPGKGLEWMGRMRYDGDTYYNSVLKSRLSISRDTSKNQVFLKMNSLQTDDTAIYYCTRDGRGDSFDYWGQGVMVTVSSAKTTPPSVYPLAPGSAAQTNSMVTLGCLVKGYFPEPVTVTWNSGSLSSGVHTFPAVLQSDLYTLSSSVTVPSSTWPSQTVTCNVAHPASSTKVDKKIVPRDCGGGGSGGGGSQVQLKESGPGLVQPSQTLSLTCTVSGFSLTGYNLHWVRQPPGKGLEWMGRMRYDGDTYYNSVLKSRLSISRDTSKNQVFLKMNSLQTDDTAIYYCTRDGRGDSFDYWGQGVMVTVSSAKTTPPSVYPLAPGSAAQTNSMVTLGCLVKGYFPEPVTVTWNSGSLSSGVHTFPAVLQSDLYTLSSSVTVPSSTWPSQTVTCNVAHPASSTKVDKKIVPRDCGCKPCICTVPEVSSVFIFPPKPKDVLTITLTPKVTCVVVAISKDDPEVQFSWFVDDVEVHTAQTKPREEQINSTFRSVSELPIMHQDWLNGKEFKCRVNSAAFGAPIEKTISKTKGRPKAPQVYTIPPPKKQMAKDKVSLTCMITNFFPEDITVEWQWNGQPAENYKNTQPIMKTDGSYFVYSKLNVQKSNWEAGNTFTCSVLHEGLHNHHTEKSLSHSPGGGGGSGGGGSGGGGSGGGGSEVQLAESGGGLVQPGRSMKLSCAASGFTFSNFPMAWVRQAPTKGLEWVATISTSGGSTYYRDSVKGRFTISRDNAKSTLYLQMNSLRSEDTATYYCTRTLYILRVFYFDYWGQGVMVTVSS
light: DIVMTQGALPNPVPSGESASITCRSSQSLVYKDGQTYLNWFLQRPGQSPQLLTYWMSTRASGVSDRFSGSGSGTYFTLKISRVRAEDAGVYYCQQVREYPFTFGSGTKLEIKRADAAPTVSIFPPSSEQLTSGGASVVCFLNNFYPKDINVKWKIDGSERQNGVLNSWTDQDSKDSTYSMSSTLTLTKDEYERHNSYTCEATHKTSTSPIVKSFNRNEC
notes: muIgG1 DAPG with DDKK heterodimerisation; also called 4+1 muEpCAM; 4 + 1 anti-muOX40, anti-muEpCAM
